Publication PMC9104065

Target: Wisteria floribunda agglutinin (Wisteria floribunda)
Assay: automated chemiluminescent enzyme immunoassay (CLEIA, HISCL); IgA1 standards captured on WFA-conjugated magnetic beads, detected with alkaline-phosphatase-labelled anti-IgA1 mAb; 42 °C

CLEIA count, fold over nIgA1 not treated with sialidase: 700 fold
Substance: polymeric IgA1 standard cross linked with glutaraldehyde, with sialidase digestion
